According to the array DNA melting data of Ke et al.:

Assay: melting temperature; melt of duplexes
Conditions: sodium 0.0675 M; strand 1 µM

Substance	Tm
CGACGTGCGCCATGTGCTG+CAGCACATAGTGCACGTCG ((((((((.(.((((((((+)))))))).).))))))))	49 °C
CGACGTGCGCCATGTGCTG+CAGCACATATAGCACGTCG ((((((((...((((((((+))))))))...))))))))	52.4 °C
CGACGTGCGCCATGTGCTG+CAGCACATCATGCACGTCG ((((((((...((((((((+))))))))...))))))))	47.8 °C
CGACGTGCGCCATGTGCTG+CAGCACATCCCGCACGTCG (((((((((..((((((((+))))))))..)))))))))	50.6 °C
CGACGTGCGCCATGTGCTG+CAGCACATCTGGCACGTCG ((((((((...((((((((+))))))))...))))))))	47.4 °C
CGACGTGCGCCATGTGCTG+CAGCACATGAAGCACGTCG ((((((((..(((((((((+)))))))))..))))))))	57.1 °C
CGACGTGCGCCATGTGCTG+CAGCACATGGCGCACGTCG (((((((((((((((((((+)))))))))))))))))))	68.7 °C
CGACGTGCGCCATGTGCTG+CAGCACATGGGGCACGTCG ((((((((.((((((((((+)))))))))).))))))))	63.2 °C
CGACGTGCGCCATGTGCTG+CAGCACATGTCGCACGTCG (((((((((.(((((((((+))))))))).)))))))))	59.7 °C
CGACGTGCGCCATGTGCTG+CAGCACATGTGGCACGTCG ((((((((..(((((((((+)))))))))..))))))))	54.1 °C
CGACGTGCGCCATGTGCTG+CAGCACATTAGGCACGTCG ((((((((...((((((((+))))))))...))))))))	48.3 °C
CGACGTGCGCCATGTGCTG+CAGCACATTATGCACGTCG ((((((((...((((((((+))))))))...))))))))	47.6 °C
CGACGTGCGCCATGTGCTG+CAGCACATTCGGCACGTCG ((((((((...((((((((+))))))))...))))))))	47.5 °C
CGACGTGCGCCATGTGCTG+CAGCACATTCTGCACGTCG ((((((((...((((((((+))))))))...))))))))	47.8 °C
CGACGTGCGCCATGTGCTG+CAGCACATTTAGCACGTCG ((((((((...((((((((+))))))))...))))))))	50.1 °C
CGACGTGCGCCATGTGCTG+CAGCACATTTCGCACGTCG (((((((((..((((((((+))))))))..)))))))))	51.6 °C
CGACGTGCGCGATGTGCTG+CAGCACATAATGCACGTCG ((((((((...((((((((+))))))))...))))))))	50 °C
CGACGTGCGCGATGTGCTG+CAGCACATACCGCACGTCG (((((((((..((((((((+))))))))..)))))))))	53.8 °C
CGACGTGCGCGATGTGCTG+CAGCACATAGAGCACGTCG ((((((((.(.((((((((+)))))))).).))))))))	55.8 °C
CGACGTGCGCGATGTGCTG+CAGCACATAGCGCACGTCG ((((((((((.((((((((+)))))))).))))))))))	63 °C
CGACGTGCGCGATGTGCTG+CAGCACATAGTGCACGTCG ((((((((.(.((((((((+)))))))).).))))))))	53.7 °C
CGACGTGCGCGATGTGCTG+CAGCACATATGGCACGTCG ((((((((...((((((((+))))))))...))))))))	50.1 °C
CGACGTGCGCGATGTGCTG+CAGCACATCAAGCACGTCG ((((((((..(((((((((+)))))))))..))))))))	59 °C
CGACGTGCGCGATGTGCTG+CAGCACATCCAGCACGTCG ((((((((..(((((((((+)))))))))..))))))))	55.6 °C
CGACGTGCGCGATGTGCTG+CAGCACATCCCGCACGTCG (((((((((.(((((((((+))))))))).)))))))))	59.2 °C
CGACGTGCGCGATGTGCTG+CAGCACATCCGGCACGTCG ((((((((..(((((((((+)))))))))..))))))))	55 °C

Substance	Tm
CGACGTGCGCGATGTGCTG+CAGCACATCGGGCACGTCG ((((((((.((((((((((+)))))))))).))))))))	63.6 °C
CGACGTGCGCGATGTGCTG+CAGCACATCTAGCACGTCG ((((((((..(((((((((+)))))))))..))))))))	55.5 °C
CGACGTGCGCGATGTGCTG+CAGCACATGCTGCACGTCG ((((((((...((((((((+))))))))...))))))))	52.9 °C
CGACGTGCGCGATGTGCTG+CAGCACATGGAGCACGTCG ((((((((.(.((((((((+)))))))).).))))))))	56 °C
CGACGTGCGCGATGTGCTG+CAGCACATGGCGCACGTCG ((((((((((.((((((((+)))))))).))))))))))	62 °C
CGACGTGCGCGATGTGCTG+CAGCACATGGGGCACGTCG ((((((((.(.((((((((+)))))))).).))))))))	55.6 °C
CGACGTGCGCGATGTGCTG+CAGCACATGTAGCACGTCG ((((((((...((((((((+))))))))...))))))))	52.6 °C
CGACGTGCGCGATGTGCTG+CAGCACATGTGGCACGTCG ((((((((...((((((((+))))))))...))))))))	51.7 °C
CGACGTGCGCGATGTGCTG+CAGCACATTAAGCACGTCG ((((((((...((((((((+))))))))...))))))))	55 °C
CGACGTGCGCGATGTGCTG+CAGCACATTATGCACGTCG ((((((((...((((((((+))))))))...))))))))	50 °C
CGACGTGCGCGATGTGCTG+CAGCACATTCTGCACGTCG ((((((((...((((((((+))))))))...))))))))	50.4 °C
CGACGTGCGCGATGTGCTG+CAGCACATTGAGCACGTCG ((((((((.(.((((((((+)))))))).).))))))))	56.8 °C
CGACGTGCGCGATGTGCTG+CAGCACATTGGGCACGTCG ((((((((.(.((((((((+)))))))).).))))))))	57.1 °C
CGACGTGCGCGATGTGCTG+CAGCACATTTAGCACGTCG ((((((((...((((((((+))))))))...))))))))	52.2 °C
CGACGTGCGCGATGTGCTG+CAGCACATTTTGCACGTCG ((((((((...((((((((+))))))))...))))))))	48.9 °C
CGACGTGCGCTATGTGCTG+CAGCACATAAGGCACGTCG ((((((((..(((((((((+)))))))))..))))))))	51.6 °C
CGACGTGCGCTATGTGCTG+CAGCACATACAGCACGTCG ((((((((..(((((((((+)))))))))..))))))))	52.1 °C
CGACGTGCGCTATGTGCTG+CAGCACATACCGCACGTCG (((((((((.(((((((((+))))))))).)))))))))	54.8 °C
CGACGTGCGCTATGTGCTG+CAGCACATACGGCACGTCG ((((((((..(((((((((+)))))))))..))))))))	50.6 °C
CGACGTGCGCTATGTGCTG+CAGCACATAGGGCACGTCG ((((((((.((((((((((+)))))))))).))))))))	59.6 °C
CGACGTGCGCTATGTGCTG+CAGCACATAGTGCACGTCG ((((((((.((((((((((+)))))))))).))))))))	58.2 °C
CGACGTGCGCTATGTGCTG+CAGCACATATAGCACGTCG ((((((((..(((((((((+)))))))))..))))))))	53.8 °C
CGACGTGCGCTATGTGCTG+CAGCACATATCGCACGTCG (((((((((.(((((((((+))))))))).)))))))))	56 °C
CGACGTGCGCTATGTGCTG+CAGCACATCAAGCACGTCG ((((((((...((((((((+))))))))...))))))))	51.4 °C
CGACGTGCGCTATGTGCTG+CAGCACATCACGCACGTCG (((((((((..((((((((+))))))))..)))))))))	53.3 °C
CGACGTGCGCTATGTGCTG+CAGCACATCCGGCACGTCG ((((((((...((((((((+))))))))...))))))))	48.1 °C
